Results taken from patent publication US20210189432A1 (UNIVERSITY OF UTAH RESEARCH FOUNDATION, published 2021).

B1: Drosophila Arc homolog dArc1 (Drosophila Arc1, NP_610955.1) (other, UniProt Q7K1U0 1-254, looked up)
chain: MAQLTQMTNEQLRELIEAVRAAAVGAAGSAAAAGGADASRGKGNFSACTHSFGGTRDHDVVEEFIGNIETYKDVEGISDENALKGISLLFYGMASTWWQGVRKEATTWKEAIALIREHFSPTKPAYQIYMEFFQNKQDDHDPIDTFVIQKRALLAQLPSGRHDEETELDLLFGLLNIKYRKHISRHSVHTFKDLLEQGRIIEHNNQEDEEQLATAKNTRGSKRTTRCTYCSFRGHTFDNCRKRQKDRQEEQHEE
B2: myc-Arc-WT (full-length rat WT Arc expressed in HEK293 cells) (other)
chain: MELDHMTTGGLHAYPAPRGGPAAKPNVILQIGKCRAEMLEHVRRTHRHLLTEVSKQVERELKGLHRSVGKLENNLDGYVPTGDSQRWKKSIKACLCRCQETIANLERWVKREMHVWREVFYRLERWADRLESMGGKYPVGSEPARHTVSVGVGGPEPYCQEADGYDYTVSPYAITPPPAAGELPEQESVGAQQYQSWVPGEDGQPSPGLDTQIFEDPREFLSHLEEYLRQVGGSEEYWLSQIQNHMNGPAKKWWEFKQGSVKNWVEFKKEFLQYSEGTLSREAIQRELDLPQKQGEPLDQFLWRKRDLYQTLYVDAEEEEIIQYVVGTLQPKFKRFLRHPLPKTLEQLIQRGMEVQDGLEQAAEPSVTPLPTEDETEALTPALTSESVASDRTQPE
notes: Crosslinked in situ inside transfected HEK293 cells with formaldehyde; also called WT myc-Arc; not shown: myc tag of pRK5-myc-Arc

Tests used:
[1] = molecular target: the molecule itself; experiment: negative stain EM of purified protein (self-assembly)
[2] = molecular target: the molecule itself; experiment: formaldehyde crosslinking in situ in HEK293 cells, western blot
Procedure: Western blot samples were mixed with 4× Laemlli buffer (40% glycerol, 250 mM Tris, 4% SDS, 50 mM DTT, pH 6.8) and heated at 70° C. for 5 min. SDS-PAGE gel electrophoresis was used to separate protein samples. Separated samples were transferred to a nitrocellulose membrane (GE Healthcare). Following transfer, membranes were briefly stained with 0.1% Ponceau stain, then destained with 1% acetic acid to remove background, for imaging of total protein. […] Membranes were washed 3×10 min in 1×TBS, then incubated in an HRP-conjugated secondary antibody (Jackson ImmunoResearch) in block for 1 h at RT. After 3×10 min in 1×TBS, a chemiluminescent kit (Bio-Rad, Hercules, Calif.) was used to detect the protein bands, and the membranes were imaged on an Azure c300 gel dock (Azure Biosystems, Dublin, Calif.). Blots were analyzed and quantified using the Gel Analysis plugin in ImageJ.
Media was removed and pelleted cells were then crosslinked with 0.4% formaldehyde in PBS for 10 min with rocking at RT. Cell suspensions were immediately quenched with Tris to a final concentration of 50 mM and repelleted. […] Lysates were cleared by centrifugation at 21,000×g for 10 min at 4° C. and cleared supernatants were then run on a 4%-8% gradient gel and analyzed via western blot with antibodies for Arc (mouse monoclonal, Santa Cruz) and GFP (chicken polyclonal, Ayes).

Protein | binding result [1] | binding result [2]
B1 | binds | 
B2 |  | binds
